{
  "source": "patent US20110118324A1",
  "about": "“METHOD AND COMPOSITION FOR TREATING MULTIPLE SCLEROSIS (VARIANTS)” (priority 2009, published 2011)",
  "origin": "cited, not measured here",
  "molecules": {"B1": {"name": "Betaferon: a recombinant human Beta-1b interferon (protein, UniProt P01574 22-187, looked up, variant C17S)", "Interferon beta": "MSYNLLGFLQRSSNFQSQKLLWQLNGRLEYCLKDRMNFDIPEEIKQLQQFQKEDAALTIYEMLQNIFAIFRQDSSSTGWNETIVENLLANVYHQINHLKTVLEEKLEKEDFTRGKLMSSLHLKRYYGRILHYLKAKEYSHCAWTIVRVEILRNFYFINRLTGYLRN", "modifications": "lacks N-terminal Met, non-glycosylated", "notes": "a recombinant human Beta-1b interferon"}},
  "test_system": "multiple sclerosis patients",
  "data": [
    {"molecule": "B1", "values": [
      {"measurement": "reduction of the frequency of acute conditions occurring in the disease", "value": 30, "unit": "%"},
      {"measurement": "reduction of the severity of acute conditions", "value": 30, "unit": "%"},
      {"measurement": "side effects", "value": "intensified depressive symptomatology"}
    ]}
  ]
}
